Assay results taken from patent US20120082682A1 (GlaxoSmithKline, published 2012).
Read-outs that look alike come from different tables or passages of the source.

T1: human IL-4 (recombinant E. coli-expressed) (human, UniProt P05112 25-153)
T1 sequence (looked up): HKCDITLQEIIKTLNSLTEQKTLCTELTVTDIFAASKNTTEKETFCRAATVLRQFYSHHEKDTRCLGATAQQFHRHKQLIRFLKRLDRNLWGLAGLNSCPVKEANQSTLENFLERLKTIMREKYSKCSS

B1: BPC1090 (bispecific antibody, human IgG1, kappa)
heavy: not shown
light: DIVMTQSPLSLPVTPGEPASISCRSSQNIVHINGNTYLEWYLQKPGQSPRLLIYKISDRFSGVPDRFSGSGSGTDFTLKISRVEADDVGIYYCFQGSHVPWTFGQGTKLEIKRTVAAPSVFIFPPSDEQLKSGTASVVCLLNNFYPREAKVQWKVDNALQSGNSQESVTEQDSKDSTYSLSSTLTLSKADYEKHKVYACEVTHQGLSSPVTKSFNRGEC
notes: mAbdAb; dAb DOM9-155-154 with Kabat 89 G; also called 829H-(TVAAPS)2GS-154 (89G)
B2: BPC1091 (bispecific antibody, human IgG1, kappa)
heavy: not shown
light: B1 light
notes: mAbdAb; dAb Kabat 89 S; also called 829H-(TVAAPS)2GS-154 (89S)
B3: BPC1092 (bispecific antibody, human IgG1, kappa)
heavy: not shown
light: B1 light
notes: mAbdAb; dAb Kabat 89 H; also called 829H-(TVAAPS)2GS-154 (89H)
B4: BPC1094 (bispecific antibody, human IgG1, kappa)
heavy: not shown
light: B1 light
notes: mAbdAb; dAb Kabat 89 A; also called 829H-(TVAAPS)2GS-154 (89A)
B5: BPC1095 (bispecific antibody, human IgG1, kappa)
heavy: not shown
light: B1 light
notes: mAbdAb; dAb Kabat 89 T; also called 829H-(TVAAPS)2GS-154 (89T)
B6: BPC1108 (bispecific antibody, human IgG1, kappa)
heavy: not shown
light: B1 light
notes: mAbdAb; dAb Kabat 89 C; also called 829H-(TVAAPS)2GS-154 (89C)
B7: BPC1109 (bispecific antibody, human IgG1, kappa)
heavy: not shown
light: B1 light
notes: mAbdAb; dAb Kabat 89 R; also called 829H-(TVAAPS)2GS-154 (89R)
B8: BPC1110 (bispecific antibody, human IgG1, kappa)
heavy: not shown
light: B1 light
notes: mAbdAb; dAb Kabat 89 W; also called 829H-(TVAAPS)2GS-154 (89W)
B9: BPC1111 (bispecific antibody, human IgG1, kappa)
heavy: not shown
light: B1 light
notes: mAbdAb; dAb Kabat 89 E; also called 829H-(TVAAPS)2GS-154 (89E)
B10: BPC1114 (bispecific antibody, human IgG1, kappa)
heavy: not shown
light: B1 light
notes: mAbdAb; dAb Kabat 89 N; also called 829H-(TVAAPS)2GS-154 (89N)
B11: BPC1116 (bispecific antibody, human IgG1, kappa)
heavy: not shown
light: B1 light
notes: mAbdAb; dAb Kabat 89 V; also called 829H-(TVAAPS)2GS-154 (89V)
B12: BPC1117 (bispecific antibody, human IgG1, kappa)
heavy: not shown
light: B1 light
notes: mAbdAb; dAb Kabat 89 I; also called 829H-(TVAAPS)2GS-154 (89I)
B13: BPC1118 (bispecific antibody, human IgG1, kappa)
heavy: not shown
light: B1 light
notes: mAbdAb; dAb Kabat 89 F; also called 829H-(TVAAPS)2GS-154 (89F)

Experiments:
[1] = target: T1, human IL-4 (recombinant E. …); assay: Biacore T100 SPR, Protein A capture (CM5), human IL4 analyte, 1:1 fit
Experimental: Protein A was immobilised on a CM5 chip by primary amine coupling; this surface was used as a capture surface for the antibody molecules to be tested.
All binding curves were double referenced with a 0 nM injection (i.e. buffer alone). Regeneration of the Protein A surface was with 50 mM NaOH. The assay was run at 25° C. using HBS-EP as running buffer. The data was fitted to 1:1 model inherent to the Biacore T100 analysis software.

[2] = target: T1, human IL-4 (recombinant E. …); assay: as above; remark: listed apart in the source
Experimental: Purified mAbs and mAbdAb constructs were tested in a BIAcore assay to determine whether the mutation of position 89 had any effect on the binding of the dAb to IL-4.
Protein A was immobilised on a CM5 chip by primary amine coupling; this surface was used as a capture surface for the antibody molecules to be tested. […] Regeneration of the […] surface was achieved using 50 mM NaOH. The assay was run at 25° C. using HBS-EP as running buffer. The data was fitted to 1:1 model inherent to the Biacore T100 analysis software.

Binder	Kd [1] [nM]	koff [1] [s⁻¹]	kon [1] [M⁻¹ s⁻¹]	Kd [2] [nM]	koff [2] [s⁻¹]	kon [2] [M⁻¹ s⁻¹]
B1	0.096	0.000416	4.34e+06	0.152	0.000455	3e+06
B2	0.168	0.00102	6.05e+06	0.244	0.000966	3.96e+06
B3	1.71	0.00389	2.27e+06	1.79	0.00534	2.98e+06
B4	2.08	0.00304	1.46e+06	1.95	0.00373	1.91e+06
B5	4.69	0.0318	6.78e+06	5.76	0.0144	2.5e+06
B6	0.281	0.00123	4.38e+06			
B7	147	0.177	1.2e+06			
B8	1.63	0.00173	1.07e+06			
B9	0.037	0.000111	2.98e+06	0.031	0.000104	3.37e+06
B10	0.656	0.00255	3.89e+06			
B11	0.402	0.00274	6.82e+06			
B12	0.231	0.000913	3.95e+06			
B13	0.405	0.00258	6.39e+06			
